In PMC12663325, “Structural insights into mechanisms of zinc scavenging by the Candida albicans zincophore Pra1” (Nature Communications, 2025):

Target: the molecule itself
Test: cryo-EM structure; Pra1:Zn2+ complex; 20 mM Tris-HCl pH 8.0, 150 mM NaCl, 1 mM ZnSO4, 0.05% BSA as additive; C1 map, 2.5 Å

B1: Candida albicans Pra1, recombinant wild type (full-length excluding the signal peptide) (natural protein)
chain: APVTVTRFVDASPTGYDWRADWVKGFPIDSSCNATQYNQLSTGLQEAQLLAEHARDHTLRFGSKSPFFRKYFGNETASAEVVGHFDNVVGADKSSILFLCDDLDDKCKNDGWAGYWRGSNHSDQTIICDLSFVTRRYLTQLCSSGYTVSKSKTNIFWAGDLLHRFWHLKSIGQLVIEHYADTYEEVLELAQENSTYAVRNSNSLIYYALDVYAYDVTIPGEGCNGDGTSYKKSDFSSFEDSDSGSDSGASSTASSSHQHTDSNPSATTDANSHCHTHADGEVHC
modifications: N-linked glycosylation at Asn 48, Asn 89, Asn 135 and Asn 208; three intramolecular disulfide bonds
notes: Pra1 of Candida albicans, codon-optimized full-length PRA1 excluding the signal peptide; the precursor is 299 amino acids including its N-terminal signal peptide; residues 31-251 are seen in the cryo-EM maps; A TEV protease site stood between the His-tag and Pra1; also called zincophore Pra1; wild-type Pra1; not shown: His-tag, N-terminal, cleaved
  stoichiometry N: 6
